Source: the supplement of paper PMC10567573

B1: KRT18 (parent)
chain: PQVRDWSHYFKIIEDLRAQIFANT

Variants of: B1
Assay: protein stability index of a GFP-peptide fusion (GPS, HEK-293T) (PSI 1-6); higher = more stable
Conditions: c terminus: a fixed tail appended
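Note: lentivirally expressed fusions sorted by FACS into six bins by GFP to DsRed ratio, PSI derived from sequencing read proportions per bin multiplied by bin number.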

Variant	protein stability index
PQVRDWSFYFKIIEDLRAQIFANT [H8F]	1.59
PQVRDWSYYFKIIEDLRAQIFANT [H8Y]	2.08
PQVRDWSQYFKIIEDLRAQIFANT [H8Q]	1.83
PQVRDWSWYFKIIEDLRAQIFANT [H8W]	1.34
PQVRDWSDYFKIIEDLRAQIFANT [H8D]	1.92
PQVRDWSPYFKIIEDLRAQIFANT [H8P]	1.83
PQVRDWSCYFKIIEDLRAQIFANT [H8C]	1.78
PQVRDWSEYFKIIEDLRAQIFANT [H8E]	2.49
PQVRDWSIYFKIIEDLRAQIFANT [H8I]	2.4
PQVRDWSRYFKIIEDLRAQIFANT [H8R]	1.98
PQVRDWSTYFKIIEDLRAQIFANT [H8T]	1.6
PQVRDWSLYFKIIEDLRAQIFANT [H8L]	2.43
PQVRDWSVYFKIIEDLRAQIFANT [H8V]	2.17
PQVRDWSMYFKIIEDLRAQIFANT [H8M]	2.28
PQVRDWSGYFKIIEDLRAQIFANT [H8G]	2.58
PQVRDWSAYFKIIEDLRAQIFANT [H8A]	2.06
PQVRDWSNYFKIIEDLRAQIFANT [H8N]	2.24
PQVRDWSSYFKIIEDLRAQIFANT [H8S]	2.23
PQVRDWSKYFKIIEDLRAQIFANT [H8K]	2.59
PQKRDWSHYFKIIEDLRAQIFANT [V3K]	1.79
PQWRDWSHYFKIIEDLRAQIFANT [V3W]	1.7
PQQRDWSHYFKIIEDLRAQIFANT [V3Q]	2.52
PQGRDWSHYFKIIEDLRAQIFANT [V3G]	2.13
PQDRDWSHYFKIIEDLRAQIFANT [V3D]	2.39

Variant	protein stability index
PQHRDWSHYFKIIEDLRAQIFANT [V3H]	1.94
PQPRDWSHYFKIIEDLRAQIFANT [V3P]	2.46
PQMRDWSHYFKIIEDLRAQIFANT [V3M]	1.84
PQLRDWSHYFKIIEDLRAQIFANT [V3L]	2.88
PQTRDWSHYFKIIEDLRAQIFANT [V3T]	2.24
PQARDWSHYFKIIEDLRAQIFANT [V3A]	1.71
PQERDWSHYFKIIEDLRAQIFANT [V3E]	3.61
PQCRDWSHYFKIIEDLRAQIFANT [V3C]	2.41
PQIRDWSHYFKIIEDLRAQIFANT [V3I]	2.05
PQSRDWSHYFKIIEDLRAQIFANT [V3S]	2.44
PQNRDWSHYFKIIEDLRAQIFANT [V3N]	2.06
PQYRDWSHYFKIIEDLRAQIFANT [V3Y]	2.69
PQFRDWSHYFKIIEDLRAQIFANT [V3F]	2.24
PQVRRWSHYFKIIEDLRAQIFANT [D5R]	3.09
PQVRAWSHYFKIIEDLRAQIFANT [D5A]	2.93
PQVRCWSHYFKIIEDLRAQIFANT [D5C]	2.2
PQVRVWSHYFKIIEDLRAQIFANT [D5V]	2.56
PQVRKWSHYFKIIEDLRAQIFANT [D5K]	3.2
PQVRNWSHYFKIIEDLRAQIFANT [D5N]	2.16
PQVRWWSHYFKIIEDLRAQIFANT [D5W]	1.63
PQVRMWSHYFKIIEDLRAQIFANT [D5M]	2.57
PQVRSWSHYFKIIEDLRAQIFANT [D5S]	2.5
PQVRYWSHYFKIIEDLRAQIFANT [D5Y]	2.15
PQVRQWSHYFKIIEDLRAQIFANT [D5Q]	2.44

Variant	protein stability index
PQVRHWSHYFKIIEDLRAQIFANT [D5H]	1.68
PQVREWSHYFKIIEDLRAQIFANT [D5E]	2.8
PQVRLWSHYFKIIEDLRAQIFANT [D5L]	2.88
PQVRGWSHYFKIIEDLRAQIFANT [D5G]	1.99
PQVRIWSHYFKIIEDLRAQIFANT [D5I]	2.46
PQVRTWSHYFKIIEDLRAQIFANT [D5T]	2.53
PQVRFWSHYFKIIEDLRAQIFANT [D5F]	1.88
PQVRPWSHYFKIIEDLRAQIFANT [D5P]	1.87
PVVRDWSHYFKIIEDLRAQIFANT [Q2V]	3.24
PPVRDWSHYFKIIEDLRAQIFANT [Q2P]	3.51
PSVRDWSHYFKIIEDLRAQIFANT [Q2S]	2.42
PWVRDWSHYFKIIEDLRAQIFANT [Q2W]	1.82
PYVRDWSHYFKIIEDLRAQIFANT [Q2Y]	2.34
PRVRDWSHYFKIIEDLRAQIFANT [Q2R]	1.77
PTVRDWSHYFKIIEDLRAQIFANT [Q2T]	2.31
PQVRDWSHIFKIIEDLRAQIFANT [Y9I]	2.12
PQVRDWSHVFKIIEDLRAQIFANT [Y9V]	2.48
PQVRDWSHGFKIIEDLRAQIFANT [Y9G]	1.75
PQVRDWSHDFKIIEDLRAQIFANT [Y9D]	2.95
PQVRDWSHNFKIIEDLRAQIFANT [Y9N]	2.71
PQVRDWSHMFKIIEDLRAQIFANT [Y9M]	1.89
PQVRDWSHQFKIIEDLRAQIFANT [Y9Q]	2.42
PQVRDWSHSFKIIEDLRAQIFANT [Y9S]	2.56
PQVRDWSHPFKIIEDLRAQIFANT [Y9P]	2.36

Variant	protein stability index
PQVRDWSHHFKIIEDLRAQIFANT [Y9H]	2.5
PQVRDWSHTFKIIEDLRAQIFANT [Y9T]	1.81
PQVRDWSHAFKIIEDLRAQIFANT [Y9A]	2.24
PQVRDWSHEFKIIEDLRAQIFANT [Y9E]	2.55
PQVRDWSHKFKIIEDLRAQIFANT [Y9K]	1.76
PQVRDWSHFFKIIEDLRAQIFANT [Y9F]	1.94
PQVRDWSHWFKIIEDLRAQIFANT [Y9W]	2.5
PQVRDWSHLFKIIEDLRAQIFANT [Y9L]	2.17
PQVRDWSHCFKIIEDLRAQIFANT [Y9C]	1.97
PQVRDWSHRFKIIEDLRAQIFANT [Y9R]	2.25
PQVRDWNHYFKIIEDLRAQIFANT [S7N]	2.08
PQVRDWLHYFKIIEDLRAQIFANT [S7L]	1.52
PQVRDWCHYFKIIEDLRAQIFANT [S7C]	1.94
PQVRDWQHYFKIIEDLRAQIFANT [S7Q]	3.49
PQVRDWHHYFKIIEDLRAQIFANT [S7H]	2.36
PQVRDWFHYFKIIEDLRAQIFANT [S7F]	1.41
PQVRDWYHYFKIIEDLRAQIFANT [S7Y]	1.61
PQVRDWKHYFKIIEDLRAQIFANT [S7K]	2.36
PQVRDWRHYFKIIEDLRAQIFANT [S7R]	1.99
PQVRDWWHYFKIIEDLRAQIFANT [S7W]	1.95
PQVRDWPHYFKIIEDLRAQIFANT [S7P]	2.23
PQVRDWGHYFKIIEDLRAQIFANT [S7G]	3.02
